Data as given in PMC8396340.

Molecular target: Transferrin receptor 1 (TfR, CD71) (Homo sapiens) (UniProt P02786)
Assay: flow cytometry cell binding
Conditions: 5 mM Mg2+, PBS, 4.5 g/L glucose, 5 mM MgCl2, 1 mg/mL BSA, 0.1 mg/mL herring sperm DNA, 30 min on ice (4 C), intact cells
[1] = HCT-8T cells (cell line inferred)

UniProt P02786, sequence (P02786 whole entry): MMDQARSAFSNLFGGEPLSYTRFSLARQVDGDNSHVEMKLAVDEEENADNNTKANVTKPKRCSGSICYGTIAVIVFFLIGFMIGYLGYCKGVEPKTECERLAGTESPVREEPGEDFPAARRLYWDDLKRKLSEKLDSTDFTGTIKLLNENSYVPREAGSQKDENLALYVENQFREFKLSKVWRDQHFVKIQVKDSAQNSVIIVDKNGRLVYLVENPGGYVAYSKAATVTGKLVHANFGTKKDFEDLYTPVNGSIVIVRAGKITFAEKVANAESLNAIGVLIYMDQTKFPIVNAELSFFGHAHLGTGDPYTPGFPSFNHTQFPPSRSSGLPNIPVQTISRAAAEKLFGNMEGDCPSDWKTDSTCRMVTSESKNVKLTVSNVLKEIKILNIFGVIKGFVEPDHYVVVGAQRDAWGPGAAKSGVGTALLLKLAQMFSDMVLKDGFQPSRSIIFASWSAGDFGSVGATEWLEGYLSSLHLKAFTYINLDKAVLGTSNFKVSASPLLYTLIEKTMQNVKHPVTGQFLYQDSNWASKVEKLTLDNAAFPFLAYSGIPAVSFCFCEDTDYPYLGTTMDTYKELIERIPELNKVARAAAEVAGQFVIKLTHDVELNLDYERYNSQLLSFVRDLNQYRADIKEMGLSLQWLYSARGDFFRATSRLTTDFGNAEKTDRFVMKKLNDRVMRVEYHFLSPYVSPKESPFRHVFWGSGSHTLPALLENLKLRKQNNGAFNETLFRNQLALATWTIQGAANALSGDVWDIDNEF

Sequence	Kd [1]	Kd (HeLa cells)	Kd (Jurkat cells)
AAGGAGCAGCGTGGAGGATAGGGATTCTGTTGGTCGGCTGGTTGGTATCCTTAGGGTGTGTCGTCGTGGT [HG1]	6.48 nM		
GGATAGGGATTCTGTTGGTCGGCTGGTTGGTATCC [HG1-9]	5.4 nM	19.8 nM	11 nM
